The data set concerns the molecule itself. The data set can be described thus: crystal structure.

B1: mZP2-N2N3 (mouse ZP2 NTR ΔN1 construct) (domain or fragment, UniProt P20239 135-360, looked up)
chain: PAIQAETHEISEIVVCRRDLISFSFPQLFSRLADENQNVSEMGWIVKIGNGTRAHILPLKDAIVQGFNLLIDSQKVTLHVPANATGIVHYVQESSYLYTVQLELLFSTTGQKIVFSSHAICAPDLSVACNATHMTLTIPEFPGKLESVDFGQWSIPEDQWHANGIDKEATNGLRLNFRKSLLKTKPSEKCPFYQFYLSSLKLTFYFQGNMLSTVIDPECHCESPVS
Turning to B1, the binding result is reported as “binds”.
